This note sets out measurements from PMC4131482, “The significance of the F variant of alpha-1-antitrypsin and unique case report of a PiFF homozygote” (BMC Pulmonary Medicine, 2014).

In experiment [1] the target is proteinase 3 (UniProt P24158). In words: time course of enzyme inhibition (residual activity, second order association rate constant); methylamine-treated serum A1AT and PR3, equimolar, 1 nM each, 23°C, plate wells of 150 uL; residual PR3 activity at 1-5 min with the FRET substrate Abz-VAD-norV-ADRQ-EDDnp.
In experiment [2] the target is proteinase 3 (UniProt P24158). As to the kind of experiment: time course of enzyme inhibition (residual activity, second order association rate constant); purified M or Z variant A1AT and PR3, equimolar, 1 nM each, 23°C, plate wells of 150 uL; residual PR3 activity at 1-5 min with the FRET substrate Abz-VAD-norV-ADRQ-EDDnp.
Experiment [3] concerns the target T1, M variant alpha-1-antitrypsin (human (endogenous in serum), UniProt P01009 25-418).
T1 construct: alpha-1-antitrypsin (A1AT), normal M variant, human serum or bought pure protein; the assays tell them apart; also called M variant A1AT; pure M variant A1AT; source: endogenous, serum of healthy PiMM controls, treated with methylamine; also bought: Athens Research and Technology, pure
Described as above. The conditions noted are these: both partners purified.

Experiment [4] has as its target T1, M variant alpha-1-antitrypsin. In words: time course of enzyme inhibition (residual activity, second order association rate constant); methylamine-treated serum A1AT and PR3, equimolar, 1 nM each, 23°C, plate wells of 150 uL; residual PR3 activity at 1-5 min with the FRET substrate Abz-VAD-norV-ADRQ-EDDnp. The conditions noted are these: one partner purified.
Experiment [5] deals with T2, F variant alpha-1-antitrypsin (human (endogenous in serum), UniProt P01009 25-418, arginine at residue 223 by cysteine).
T2 construct: alpha-1-antitrypsin (A1AT), F variant, human serum; arginine at residue 223 replaced by cysteine; also called F variant A1AT; F A1AT; source: endogenous, serum of a PiFF homozygote, treated with methylamine
T2 sequence (P01009 other isoform, or with tags, fused parts or gaps with the stated changes): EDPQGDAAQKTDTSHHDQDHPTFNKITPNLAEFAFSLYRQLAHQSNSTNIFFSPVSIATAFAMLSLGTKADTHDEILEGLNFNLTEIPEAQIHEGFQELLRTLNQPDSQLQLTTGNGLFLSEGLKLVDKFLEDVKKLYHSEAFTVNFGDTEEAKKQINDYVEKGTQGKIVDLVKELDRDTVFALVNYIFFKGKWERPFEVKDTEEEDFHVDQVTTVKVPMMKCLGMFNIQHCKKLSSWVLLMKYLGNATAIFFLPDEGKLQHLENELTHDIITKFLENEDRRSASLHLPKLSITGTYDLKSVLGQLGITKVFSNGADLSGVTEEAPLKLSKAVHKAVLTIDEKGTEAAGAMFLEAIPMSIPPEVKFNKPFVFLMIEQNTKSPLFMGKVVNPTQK
The experiment is described as above. The following applies: one partner purified.

Usually kon stands for the second-order rate constant of association. A lower kon goes with slower complex formation.

T1 sequence (P01009 25-418, change not shown): as the sequence (P01009 other isoform, or with tags, fused parts or gaps with the stated changes) above, with C223R counted along it

In the experiment with proteinase 3 [1], “S variant alpha-1-antitrypsin (from UniProt P01009 25-418) (natural protein)” gave a kon of 951000 M⁻¹ s⁻¹.

In the case of “Z variant alpha-1-antitrypsin (from UniProt P01009 25-418) (natural protein)”, the values for the kon with proteinase 3 [1] and with proteinase 3 [2] were 1.1e+06 M⁻¹ s⁻¹ and 1.03e+06 M⁻¹ s⁻¹, respectively.

B1: proteinase 3 (enzyme, UniProt P24158 28-248, looked up)
chain: IVGGHEAQPHSRPYMASLQMRGNPGSHFCGGTLIHPSFVLTAAHCLRDIPQRLVNVVLGAHNVRTQEPTQQHFSVAQVFLNNYDAENKLNDVLLIQLSSPANLSASVATVQLPQQDQPVPHGTQCLAMGWGRVGAHDPPAQVLQELNVTVVTFFCRPHNICTFVPRRKAGICFGDSGGPLICDGIIQGIDSFVIWGCATRLFPDFFTRVALYVDWIRSTLR
notes: proteinase 3 (PR3), bought pure enzyme, active site titrated; also called PR3; pure PR3; source: bought: Merck, pure
B1: the kon in experiment [3] came to 983000 M⁻¹ s⁻¹; in experiment [4], 924000 M⁻¹ s⁻¹; in experiment [5], 1.06e+06 M⁻¹ s⁻¹.
